Experimental findings from EP4702992A1 (CSPC Megalith Biopharmaceutical Co., Ltd., dated 2024) are described below.

Usually EC50 stands for the concentration at which the effect is half-maximal.

B1: DSADC (antibody, V domains shown)
VH: QVQLVQSGAEVKKPGSSVKVSCKASGYTFTNYVMHWVRQAPGQGLEWMGYINPYNDDVKYNEKFKGRVTITADESTSTAYMELSSLRSEDTAVYYCARWGYYGSPLYYFDYWGQGTLVTVSS
VL: EIVLTQSPATLSLSPGERATLSCRASSRLIYMHWYQQKPGQAPRPLIYATSNLASGIPARFSGSGSGTDFTLTISSLEPEDFAVYYCQQWNSNPPTFGQGTKVEIKR
modifications: control linker-drug per CN104755494A conjugated to the antibody; average DAR 3.9 per antibody
notes: Control anti-B7H3 ADC; the tie of DSADC to M30 is by position and a drawing only; also called M30 antibody conjugate
B2: B-ADC55-1-6 (antibody, human IgG1, kappa, L234A L235A, V domains shown)
VH: QVQLVQSGAEVKKPGASVKVSCKASGYTFTDYFMNWVRQAPGQGLEWMGDVNPKTGSPSYNQKFKGRVTMTRDTSTSTVYMELSSLRSEDTAVYYCARRYGFLYSMDYWGQGTSVTVSS
VL: DIQMTQSPSSLSASVGDRVTITCRASQDISNYLNWYQQKPGKAVKVLIYYTSRLHSGVPSRFSGSGSGTDFTFTISSLQPEDIATYYCQQGNTHPFTFGGGTKVEIKR
modifications: linker-drug LD55-1 (exatecan payload) conjugated to sulfhydryls of reduced interchain disulfide cysteines; average DAR 5.7 per antibody
notes: Antibody-drug conjugate: 43B + LD55-1, DAR 5.7
B3: B-ADC2-1-6 (antibody, human IgG1, kappa, L234A L235A, V domains shown)
VH: QVQLVQSGAEVKKPGASVKVSCKASGYTFTDYFMNWVRQAPGQGLEWMGDVNPKTGSPSYNQKFKGRVTMTRDTSTSTVYMELSSLRSEDTAVYYCARRYGFLYSMDYWGQGTSVTVSS
VL: DIQMTQSPSSLSASVGDRVTITCRASQDISNYLNWYQQKPGKAVKVLIYYTSRLHSGVPSRFSGSGSGTDFTFTISSLQPEDIATYYCQQGNTHPFTFGGGTKVEIKR
modifications: linker-drug LD2-1 (exatecan payload) conjugated to sulfhydryls of reduced interchain disulfide cysteines; average DAR 5.6 per antibody
notes: Antibody-drug conjugate: 43B + LD2-1, DAR 5.6
B4: B-ADC12-1-6 (antibody, human IgG1, kappa, L234A L235A, V domains shown)
VH: QVQLVQSGAEVKKPGASVKVSCKASGYTFTDYFMNWVRQAPGQGLEWMGDVNPKTGSPSYNQKFKGRVTMTRDTSTSTVYMELSSLRSEDTAVYYCARRYGFLYSMDYWGQGTSVTVSS
VL: DIQMTQSPSSLSASVGDRVTITCRASQDISNYLNWYQQKPGKAVKVLIYYTSRLHSGVPSRFSGSGSGTDFTFTISSLQPEDIATYYCQQGNTHPFTFGGGTKVEIKR
modifications: linker-drug LD12-1 (exatecan payload) conjugated to sulfhydryls of reduced interchain disulfide cysteines; average DAR 6.0 per antibody
notes: Antibody-drug conjugate: 43B + LD12-1, DAR 6.0
B5: Farletuzumab (antibody, human IgG1, kappa)
heavy: not shown
light: DIQLTQSPSSLSASVGDRVTITCSVSSSISSNNLHWYQQKPGKAPKPWIYGTSNLASGVPSRFSGSGSGTDYTFTISSLQPEDIATYYCQQWSSYPYMYTFGQGTKVEIKRTVAAPSVFIFPPSDEQLKSGTASVVCLLNNFYPREAKVQWKVDNALQSGNSQESVTEQDSKDSTYSLSSTLTLSKADYEKHKVYACEVTHQGLSSPVTKSFNRGEC
notes: Naked anti-FRα antibody
B6: F-ADC55-1-8 (antibody, human IgG1, kappa)
heavy: not shown
light: DIQLTQSPSSLSASVGDRVTITCSVSSSISSNNLHWYQQKPGKAPKPWIYGTSNLASGVPSRFSGSGSGTDYTFTISSLQPEDIATYYCQQWSSYPYMYTFGQGTKVEIKRTVAAPSVFIFPPSDEQLKSGTASVVCLLNNFYPREAKVQWKVDNALQSGNSQESVTEQDSKDSTYSLSSTLTLSKADYEKHKVYACEVTHQGLSSPVTKSFNRGEC
modifications: linker-drug LD55-1 (exatecan payload) conjugated to sulfhydryls of reduced interchain disulfide cysteines; average DAR 7.6 per antibody
notes: Antibody-drug conjugate: farletuzumab + LD55-1, DAR 7.6
B7: Farletuzumab-FcS (antibody, human IgG1, kappa, L234A L235A)
heavy: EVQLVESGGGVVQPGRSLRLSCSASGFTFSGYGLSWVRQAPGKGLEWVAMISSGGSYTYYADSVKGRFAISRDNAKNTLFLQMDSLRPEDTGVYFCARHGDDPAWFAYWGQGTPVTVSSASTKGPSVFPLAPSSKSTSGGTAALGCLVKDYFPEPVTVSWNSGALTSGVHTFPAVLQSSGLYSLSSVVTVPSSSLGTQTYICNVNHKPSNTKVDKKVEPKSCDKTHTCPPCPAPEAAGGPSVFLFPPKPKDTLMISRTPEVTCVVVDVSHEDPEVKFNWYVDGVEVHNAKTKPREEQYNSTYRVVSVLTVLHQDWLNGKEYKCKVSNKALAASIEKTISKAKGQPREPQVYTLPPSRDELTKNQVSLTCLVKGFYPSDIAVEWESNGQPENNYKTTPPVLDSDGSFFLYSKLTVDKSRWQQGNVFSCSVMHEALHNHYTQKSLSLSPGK
light: DIQLTQSPSSLSASVGDRVTITCSVSSSISSNNLHWYQQKPGKAPKPWIYGTSNLASGVPSRFSGSGSGTDYTFTISSLQPEDIATYYCQQWSSYPYMYTFGQGTKVEIKRTVAAPSVFIFPPSDEQLKSGTASVVCLLNNFYPREAKVQWKVDNALQSGNSQESVTEQDSKDSTYSLSSTLTLSKADYEKHKVYACEVTHQGLSSPVTKSFNRGEC
notes: also called Farletuzumab-FS
B8: 33B (antibody, human IgG1, kappa, L234A L235A, V domains shown)
VH: QVQLVQSGAEVKKPGASVKVSCKASGYTFTDYYMKWVRQAPGQRLEWMGAFNLNNGDTFYNQKFKGRVTITRDTSASTAYMELSSLRSEDTAVYYCARDVYGYGDYWGQGTSVTVSS
VL: DIVMTQSPDSLAVSLGERATINCRASKSVSTSGYSYMHWYQQKPGQPPKLLIYLASNLDSGVPDRFSGSGSGTDFTLTISSLQAEDVAVYYCQHSRELPYTFGGGTKLEIKR
notes: Naked anti-DLL3 antibody
B9: D-ADC12-1-8 (antibody, human IgG1, kappa, L234A L235A, V domains shown)
VH: QVQLVQSGAEVKKPGASVKVSCKASGYTFTDYYMKWVRQAPGQRLEWMGAFNLNNGDTFYNQKFKGRVTITRDTSASTAYMELSSLRSEDTAVYYCARDVYGYGDYWGQGTSVTVSS
VL: DIVMTQSPDSLAVSLGERATINCRASKSVSTSGYSYMHWYQQKPGQPPKLLIYLASNLDSGVPDRFSGSGSGTDFTLTISSLQAEDVAVYYCQHSRELPYTFGGGTKLEIKR
modifications: linker-drug LD12-1 (exatecan payload) conjugated to sulfhydryls of reduced interchain disulfide cysteines; average DAR 8.0 per antibody
notes: Antibody-drug conjugate: 33B + LD12-1, DAR 8.0
B10: D-ADC2-1-8 (antibody, human IgG1, kappa, L234A L235A, V domains shown)
VH: QVQLVQSGAEVKKPGASVKVSCKASGYTFTDYYMKWVRQAPGQRLEWMGAFNLNNGDTFYNQKFKGRVTITRDTSASTAYMELSSLRSEDTAVYYCARDVYGYGDYWGQGTSVTVSS
VL: DIVMTQSPDSLAVSLGERATINCRASKSVSTSGYSYMHWYQQKPGQPPKLLIYLASNLDSGVPDRFSGSGSGTDFTLTISSLQAEDVAVYYCQHSRELPYTFGGGTKLEIKR
modifications: linker-drug LD2-1 (exatecan payload) conjugated to sulfhydryls of reduced interchain disulfide cysteines; average DAR 8.0 per antibody
notes: Antibody-drug conjugate: 33B + LD2-1, DAR 8.0
B11: D-BATADC (antibody, human IgG1, kappa, L234A L235A, V domains shown)
VH: QVQLVQSGAEVKKPGASVKVSCKASGYTFTDYYMKWVRQAPGQRLEWMGAFNLNNGDTFYNQKFKGRVTITRDTSASTAYMELSSLRSEDTAVYYCARDVYGYGDYWGQGTSVTVSS
VL: DIVMTQSPDSLAVSLGERATINCRASKSVSTSGYSYMHWYQQKPGQPPKLLIYLASNLDSGVPDRFSGSGSGTDFTLTISSLQAEDVAVYYCQHSRELPYTFGGGTKLEIKR
modifications: control linker-drug BATLD conjugated to the antibody; average DAR 7.7 per antibody
B12: D-ADC55-1-8 (antibody, human IgG1, kappa, L234A L235A, V domains shown)
VH: QVQLVQSGAEVKKPGASVKVSCKASGYTFTDYYMKWVRQAPGQRLEWMGAFNLNNGDTFYNQKFKGRVTITRDTSASTAYMELSSLRSEDTAVYYCARDVYGYGDYWGQGTSVTVSS
VL: DIVMTQSPDSLAVSLGERATINCRASKSVSTSGYSYMHWYQQKPGQPPKLLIYLASNLDSGVPDRFSGSGSGTDFTLTISSLQAEDVAVYYCQHSRELPYTFGGGTKLEIKR
modifications: linker-drug LD55-1 (exatecan payload) conjugated to sulfhydryls of reduced interchain disulfide cysteines; average DAR 8.0 per antibody
notes: Antibody-drug conjugate: 33B + LD55-1, DAR 8.0

In one test the target is T1, B7H3 antigen on the surface of A375 cells (human, UniProt Q5ZPR3 29-534).
T1 construct: whole, on cells
T1 sequence (looked up): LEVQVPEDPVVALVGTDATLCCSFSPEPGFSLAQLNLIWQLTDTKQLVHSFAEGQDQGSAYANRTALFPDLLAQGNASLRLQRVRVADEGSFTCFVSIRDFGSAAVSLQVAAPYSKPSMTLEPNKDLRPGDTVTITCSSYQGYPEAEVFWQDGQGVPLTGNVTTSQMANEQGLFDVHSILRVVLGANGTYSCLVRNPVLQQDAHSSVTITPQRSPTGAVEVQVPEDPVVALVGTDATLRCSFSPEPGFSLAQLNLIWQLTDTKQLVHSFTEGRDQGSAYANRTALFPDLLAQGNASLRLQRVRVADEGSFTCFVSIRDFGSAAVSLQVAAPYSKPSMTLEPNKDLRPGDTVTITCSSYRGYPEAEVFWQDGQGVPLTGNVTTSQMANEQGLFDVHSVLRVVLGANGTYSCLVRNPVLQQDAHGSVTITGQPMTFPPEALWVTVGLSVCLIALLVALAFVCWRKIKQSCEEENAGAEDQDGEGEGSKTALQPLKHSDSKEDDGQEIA
As to the kind of experiment: flow cytometry (MFI) on B7H3-positive A375 cells, anti-human Alexa Fluor 488. In general terms: Flow cytometry measures light scatter and fluorescence of single cells or particles in a stream.
As for B1, the EC50 was determined as 0.0925 µg/mL. Still for that read-out and setting: the value for B2 was 0.0378 µg/mL; that for B3 was 0.0416 µg/mL; that for B4 was 0.04 µg/mL.

In the next test the target is T2, FOLR1 antigen (Sino Biological, Cat. No. 11241-H08H) (UniProt P15328 25-233).
T2 construct: Bought protein coated on the ELISA plate; also called FRα
T2 sequence (P15328 25-233 limits assumed): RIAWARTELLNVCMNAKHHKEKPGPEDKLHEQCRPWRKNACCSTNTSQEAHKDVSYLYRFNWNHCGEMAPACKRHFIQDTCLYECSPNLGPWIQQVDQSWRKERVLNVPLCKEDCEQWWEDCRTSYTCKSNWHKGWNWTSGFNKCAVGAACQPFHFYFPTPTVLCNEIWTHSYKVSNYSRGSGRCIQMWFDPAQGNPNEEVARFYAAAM
The experiment in a line: ELISA, FOLR1 coated at 0.1 µg/mL, anti-human IgG-HRP detection. (ELISA stands for enzyme-linked immunosorbent assay.)
As to B5, the response was half-maximal at 26.1 pM (EC50). The same measure, in the same setting: the value for B6 was 36.9 pM; that for B7 was 19.9 pM.

For the next test, the target named is T3, recombinant human DLL3 protein (Kactus Biosystems, Cat. No. DLL-HM103) (human, UniProt Q9NYJ7 27-492, limits assumed).
T3 construct: Bought protein coated on the ELISA plate; also called Human DLL3 proteins
T3 sequence (looked up): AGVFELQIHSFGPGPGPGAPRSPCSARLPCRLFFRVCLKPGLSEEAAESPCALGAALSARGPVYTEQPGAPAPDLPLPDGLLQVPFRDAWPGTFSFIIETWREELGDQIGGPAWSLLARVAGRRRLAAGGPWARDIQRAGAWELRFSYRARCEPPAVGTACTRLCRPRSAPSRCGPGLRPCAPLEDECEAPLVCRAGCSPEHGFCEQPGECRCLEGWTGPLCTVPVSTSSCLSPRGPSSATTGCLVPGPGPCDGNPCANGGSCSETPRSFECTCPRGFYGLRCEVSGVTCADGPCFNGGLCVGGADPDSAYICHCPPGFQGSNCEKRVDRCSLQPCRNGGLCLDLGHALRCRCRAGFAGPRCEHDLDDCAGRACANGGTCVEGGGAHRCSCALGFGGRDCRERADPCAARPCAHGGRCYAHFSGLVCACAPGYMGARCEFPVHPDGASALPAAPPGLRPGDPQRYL
The experiment in a line: ELISA, human DLL3 coated at 0.1 µg/mL, absorbance at 450 nm.
As to B8, the EC50 worked out at 1.87 pM and the Emax was 2.5.

Regarding B9, the EC50 came to 5.84 pM and the Emax was found to be 2.6. Turning to B10, the concentration giving a half-maximal response (EC50) came out at 4.64 pM and the Emax was 2.5. The matching figures for B11: 5.27 pM and 2.6. In the same order, the values of B12 are 6.28 pM and 2.5.
